According to patent publication US20230265179A1 (TWIST BIOSCIENCE, published 2023):
Positions count from the first letter of the chain named.

B1: CD40L-4 (VHH)
VHH: EVQLVESGGGLVQPGGSLRLSCAASGFTLDYYAMGWFRQAPGKEREFVAYVFGGGEITDYADSVKGRFTISADNSKNTAYLQMNSLKPEDTAVYYCANGNGVAETWGQGTLVTVSS
B2: CD40L-19 (VHH)
VHH: EVQLVESGGGLVQPGGSLRLSCAASGTITSAVFMGWFRQAPGKEREWVATISSHGLPVYADSVKGRFTISADNSKNTAYLQMNSLKPEDTAVYYCAIDEGMDYDGNFYDWGQGTLVTVSS
B3: CD40L-10 (VHH)
VHH: EVQLVESGGGLVQPGGSLRLSCAASGRIFSTYFMGWFRQAPGKEREFVAAIYWSNGKTQYADSVKGRFTISADNSKNTAYLQMNSLKPEDTAVYYCAAWLNGGNRWGQGTLVTVSS
B4: CD40L-3 (VHH)
VHH: B3 VHH with F47W, A49S, A50S, W53S, S54D, N55G, G56S, K57T, Q59D
B5: CD40L-7 (VHH)
VHH: B3 VHH with R27H, I28T, T31S, F33Y, W53S, S54G, N55G, G56I, K57T, Q59H
B6: CD40L-37 (VHH)
VHH: EVQLVESGGGLVQPGGSLRLSCAASGRTFSSYYMGWFRQAPGKEREEVATFYTGDGRTYYADSVKGRFTISADNSKNTAYLQMNSLKPEDTAVYYCAAWLNGGNRWGQGTLVTVSS
B7: CD40L-49 (VHH)
VHH: B3 VHH with I28T, T31R, F33Y
B8: CD40L-16 (VHH)
VHH: EVQLVESGGGLVQPGGSLRLSCAASGRIFSTYFMGWFRQAPGKEREWISTVYSNGHTYYADSVKGRFTISADNSKNTAYLQMNSLKPEDTAVYYCAAWLNGGNRWGQGTLVTVSS
B9: CD40L-52 (VHH)
VHH: B8 VHH with I48V, V51I, H56T, T57P, Y58A
B10: CD40L-15 (VHH)
VHH: EVQLVESGGGLVQPGGSLRLSCAASGFTFDDYDMGWFRQAPGKERELVASITSGGSTNYADSVKGRFTISADNSKNTAYLQMNSLKPEDTAVYYCAIPHGIDLYTFDWGQGTLVTVSS
B11: CD40L-13 (VHH)
VHH: EVQLVESGGGLVQPGGSLRLSCAASGFTFGNYDMGWFRQAPGKEREFVAAIDASGGFTEYADSVKGRFTISADNSKNTAYLQMNSLKPEDTAVYYCASDHYDTDTKSDVYNWGQGTLVTVSS
B12: CD40L-50 (VHH)
VHH: B11 VHH with G30D, N31D, Y32S, D52S, A53M, G56E, F57D, T58A, E59A
B13: CD40L-32 (VHH)
VHH: B11 VHH with T28G, N31S, D52Y, A53S, S54D, F57S, T58A, E59Y
B14: CD40L-8 (VHH)
VHH: B11 VHH with F27R, G30S, N31R, Y32S, A50V, D52S, A53W, G56A, F57Y
B15: CD40L-43 (VHH)
VHH: B11 VHH with T28S, F29L, G30D, N31D, A50V, D52S, A53W, G56A, F57Y
B16: CD40L-56 (VHH)
VHH: B11 VHH with F29L, G30D, N31H, A50V, D52N, A53W, G56A, F57Y
B17: CD40L-14 (VHH)
VHH: B11 VHH with G30S, N31T, I51V, D52S, A53Q, G56L, F57L, E59F
B18: CD40L-11 (VHH)
VHH: EVQLVESGGGLVQPGGSLRLSCAASGRTWNDLDMGWFRQAPGKEREFVAAISMSGEDAAYADSVKGRFTISADNSKNTAYLQMNSLKPEDTAVYYCASDHYDTDTKSDVYNWGQGTLVTVSS
B19: CD40L-31 (VHH)
VHH: EVQLVESGGGLVQPGGSLRLSCAASGFTFDDSDMGWFRQAPGKEREFVAVVNWSGSSESYADSVKGRFTISADNSKNTAYLQMNSLKPEDTAVYYCASDHYDTDTKSDVYNWGQGTLVTVSS
B20: CD40L-54 (VHH)
VHH: B19 VHH with S32Y, V50A, V51I, N52A, S54T, S56T, S57N, E58S, S59Y
B21: CD40L-5 (VHH)
VHH: B11 VHH with F27L, T28L, G30S, N31S
B22: CD40L-40 (VHH)
VHH: B11 VHH with G30D, N31D, F47L, D52S, S54T, G56D, F57D, E59Y
B23: CD40L-42 (VHH)
VHH: EVQLVESGGGLVQPGGSLRLSCAASGSMSSINAMGWFRQAPGKEREFVAVIYSSDGSTLYADSVKGRFTISADNSKNTAYLQMNSLKPEDTAVYYCAAEPYGSGSSLISEYDWGQGTLVTVSS
B24: CD40L-18 (VHH)
VHH: B23 VHH with M28I, I31V, V48I, S53W, S54R, T58S
B25: CD40L-30 (VHH)
VHH: B23 VHH with S27N, M28I, S29F, S30R
B26: CD40L-27 (VHH)
VHH: B23 VHH with M28I, N32H, V48I, S53W, S54R, T58S, I108M
B27: CD40L-12 (VHH)
VHH: EVQLVESGGGLVQPGGSLRLSCAASGRSFSTYTMGWFRQAPGKEREFVAVIYTSDGANLYADSVKGRFTISADNSKNTAYLQMNSLKPEDTAVYYCAAETYGSGSSLMSEYDWGQGTLVTVSS
B28: CD40L-9 (VHH)
VHH: B23 VHH with M28G, S29L
B29: CD40L-6 (VHH)
VHH: B23 VHH with M28I, S29D, S30N, N32H, V48I, S53W, S54R, T58S
B30: CD40L-17 (VHH)
VHH: B23 VHH with S27R, M28T, S30N, N32Y, I108M
B31: CD40L-2 (VHH)
VHH: EVQLVESGGGLVQPGGSLRLSCAASGGRTFSRYDMGWFRQAPGKEREFVAAISMSGDDAAYADSVKGRFTISADNSKNTAYLQMNSLKPEDTAVYYCASDHYDTDTKSDVYNWGQGTLVTVSS
B32: CD40L-53 (VHH)
VHH: B31 VHH with R32D, S53D, M54A, D57G, D58F, A59T, A60E

target: T1, CD40L (UniProt P29965 113-261, limits assumed); experiment: SPR (Carterra LSA), antibody amine-coupled, 1:1 model
T1 construct: SPR analyte
T1 sequence (looked up): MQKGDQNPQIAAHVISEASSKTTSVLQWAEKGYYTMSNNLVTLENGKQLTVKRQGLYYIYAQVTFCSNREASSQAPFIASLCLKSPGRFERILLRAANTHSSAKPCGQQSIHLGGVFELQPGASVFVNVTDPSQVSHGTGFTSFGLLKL
Description: SPR experiments were performed on a Carterra LSA SPR biosensor equipped with a HC30M chip at 25° C. in HBS-TE. Antibodies were diluted to 10 μg/mL and amine-coupled to the sensor chip by EDC/NHS activation, followed by ethanolamine HCl quenching. Increasing concentrations of analyte were flowed over the sensor chip in HBS-TE with 0.5 mg/mL BSA with 5-minute association and 15-minute dissociation. Following each injection cycle the surface was regenerated with 2× 30-second injections of IgG elution buffer (Thermo). Data were analyzed in Carterra's Kinetics Tool software with 1:1 binding model.

Binder | Kd [nM] | koff [s⁻¹] | kon [M⁻¹ s⁻¹]
B1 | 5.82 | 0.00147 | 252000
B2 | 6.72 | 0.00119 | 177000
B3 | ≤ 0.326 | ≤ 1e-05 | 30700
B4 | 2.91 | 0.000159 | 54700
B5 | 6.93 | 0.000121 | 17400
B6 | 2.39 | 0.000199 | 83300
B7 | 47.9 | 0.00121 | 25300
B8 | 7.93 | 0.000278 | 35100
B9 | 7.56 | 0.000453 | 59900
B10 | 1.29 | 0.000384 | 299000
B11 | ≤ 0.0113 | ≤ 1e-05 | 888000
B12 | 0.7 | 0.000577 | 824000
B13 | 0.272 | 6.18e-05 | 227000
B14 | 1.37 | 0.0004 | 291000
B15 | 0.251 | 0.000173 | 690000
B16 | 0.422 | 0.000208 | 492000

Binder | Kd [nM] | koff [s⁻¹] | kon [M⁻¹ s⁻¹]
B17 | 1.78 | 0.000538 | 303000
B18 | 0.882 | 0.000574 | 651000
B19 | 6.5 | 0.000581 | 89300
B20 | 0.758 | 0.000399 | 526000
B21 | 0.295 | 0.000196 | 662000
B22 | 0.806 | 0.000319 | 396000
B23 | 2.46 | 0.000639 | 260000
B24 | 1.77 | 0.000391 | 221000
B25 | 4.04 | 0.000633 | 157000
B26 | 0.749 | 0.000155 | 207000
B27 | 1.03 | 0.000266 | 257000
B28 | 1.13 | 0.000284 | 251000
B29 | 0.319 | 8.01e-05 | 251000
B30 | 2.32 | 0.000363 | 157000
B31 | 3.18 | 0.000725 | 228000
B32 | 0.0983 | 0.000167 | 1.7e+06

target: T2, CD40L over-expressed on Expi293 cells (UniProt P29965 1-261, limits assumed); experiment: flow cytometry, 100 nM antibody, CD40L-Expi293 vs parent Expi293 cells;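 note: ratio is the mean fluorescence intensity on CD40L-overexpressing Expi293 cells divided by the mean fluorescence intensity on parental Expi293 cells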
T2 construct: whole, on cells; also called cytokine over-expressing Expi293 cells
T2 sequence (looked up): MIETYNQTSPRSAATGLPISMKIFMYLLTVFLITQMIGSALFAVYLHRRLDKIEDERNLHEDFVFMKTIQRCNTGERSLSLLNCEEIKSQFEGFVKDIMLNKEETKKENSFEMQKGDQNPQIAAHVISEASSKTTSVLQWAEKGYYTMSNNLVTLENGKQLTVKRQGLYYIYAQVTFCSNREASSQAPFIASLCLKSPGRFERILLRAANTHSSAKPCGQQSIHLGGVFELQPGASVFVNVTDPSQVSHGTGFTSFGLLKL
Description: All incubations and washes were in buffer containing PBS+1% BSA. MFI Ratio is defined by the mean fluorescence intensity (MFI) of the cytokine over-expressing Expi293 cell over the Expi293 parent cell. […] EC50 was calculated in GraphPad Prism.

Binder | 100 nM FACS (MFI Ratio) [ratio]
B1 | 11.8
B2 | 1.9
B3 | 93.6
B4 | 87.9
B5 | 95.4
B6 | 97.7
B7 | 36.8
B8 | 47.8
B9 | 91.9
B10 | 29
B11 | 37.3
B12 | 131
B13 | 152
B14 | 80.9
B15 | 83.8
B16 | 68.4

Binder | 100 nM FACS (MFI Ratio) [ratio]
B17 | 22.5
B18 | 84
B19 | 18.5
B20 | 100
B21 | 72.9
B22 | 74.2
B23 | 40
B24 | 29.8
B25 | 24.3
B26 | 44.9
B27 | 46.2
B28 | 21.1
B29 | 67.4
B30 | 45.6
B31 | 99.1
B32 | 104
